Results taken from patent US20260151494A1.

Experiments:
[1] = target: apical domain of CD71 (Screen 3: 'cynomolgus apical domain of human CD71') (cynomolgus (as paragraph 454 words it; ambiguous)); assay: primary ELISA
[2] = target: apical domain of CD71 (Screen 3: 'cynomolgus apical domain of human CD71') (cynomolgus (as paragraph 454 words it; ambiguous)); assay: primary ELISA, RLU ratio to HSA

| RLU [1] | Apical domain:HSA [2] | Binder |
| --- | --- | --- |
| 4.83e+06 RLU | 168 | CD71-binding FN3 domain SEQ ID NO: 310 (designed binder) MSLPAPKNLVVSRVTEDSARLSWTAPDAAFDSFEIDYGEYSQAGEAIGLLVPGSERSYDLTGLKPGTEYAVWIGGVKGGFFSTPLEADFTT |
| 5.25e+06 RLU | 427 | CD71-binding FN3 domain SEQ ID NO: 314 (designed binder) MGSLPAPKNLVVSRVTEDSARLSWTAPDAAFDSFEIGYFENLYLGEAIVLTVPGSERSYDLTGLKPGTEYWVQIGGVKGGNWSAPLSAIFTT |
| 4.74e+06 RLU | 320 | CD71-binding FN3 domain SEQ ID NO: 306 (designed binder) MSLPAPKNLVVSRVTEDSARLSWTAPDAAFDSFEIGHFENLYLGEAIVLTVPGSERSYDLTGLKPGIEYWVQIGGVKGGVWSVSLSAIFTT |
| 4.57e+06 RLU | 187 | CD71-binding FN3 domain SEQ ID NO: 319 (designed binder) MSLPAPKNLVVSRVTEDSARLSWTAPGAAFDSFEIGYFENLYLGEAIVLTVPGSERSYDLTGLKPGTEYWVQIGGVKGGVWSVPLSAIFTT |
| 4.07e+06 RLU | 215 | CD71-binding FN3 domain SEQ ID NO: 326 (designed binder) MSLPAPKNLVVSRVTEDSARLSWTAPDAAFDSFEIGYWENAYKGEAIVLTVPGSERSYDLTGLKPGTEYWVQIGGVKGGVWSTPLSAIFTT |
| 5.26e+06 RLU | 188 | CD71-binding FN3 domain SEQ ID NO: 308 (designed binder) MSLPAPKNLVVSRVTEDSARMSWTTPDAAFDSFEIGYFENLYLGEAIVLTVPGSERSYDLTGLKPGTEYWVQIGGVKGGNWSAPLSAIFTT |
| 3.99e+06 RLU | 290 | CD71-binding FN3 domain SEQ ID NO: 320 (designed binder) MSLPVPKNLVVSRVTEDSARLSWTAPDAAFDSFEIGYWENAYKGEAIVLTVPGSERSYDLTGLKPGTEYWVQIGGVKGGNWSAPLSAIFTT |
| 4.92e+06 RLU | 462 | CD71-binding FN3 domain SEQ ID NO: 324 (designed binder) MSLPAPKNLVVSRITEDSARLSWTAPDAAFDSFEIGYFENLYLGEAIVLTVPGSERSYDLTGLKPGTEYWVQIGGVKGGNWSAPLSAISTT |
| 4.66e+06 RLU | 260 | CD71-binding FN3 domain SEQ ID NO: 311 (designed binder) MSLPAPKNLVVSRVTEDSARLSWTAPDAAFDSFEIGYWENAYKGEAIVLTVPGSERSYDLTGLKPGTEYVVFIGGVKGGSWSNPLSAIFTT |
| 5.63e+06 RLU | 558 | CD71-binding FN3 domain SEQ ID NO: 235 (designed binder) MSLPAPKNLVVSRVTEDSARLSWTAPDAAFDSFEIVYAEPVRFGEAIVLTVPGSERSYDLTGLKPGTEYWVQIGGVKGGNWSAPLSAIFTT |
| 6.24e+06 RLU | 701 | CD71-binding FN3 domain SEQ ID NO: 331 (designed binder) MSLPAPKNLVVSRVTEDSARLSWTAPDAAFDSFFIGYLEPQPPGEAIHLYVPGSERSYDLTGLKPGTEYNVTIQGVKVGFPSEPLIANFTT |
| 6.2e+06 RLU | 171 | CD71-binding FN3 domain SEQ ID NO: 333 (designed binder) MSLPAPENLVVSRVTEDSARLSWTAPDAAFDSFFIGYLEPQPPGEAIALYVPGSERSYDLTGLKPGTEYNVTIQGVKGGFPSLPLVATFTT |
| 7.51e+06 RLU | 798 | CD71-binding FN3 domain SEQ ID NO: 234 (designed binder) MSLPAPKNLVVSRVTEDSARLSWTAPDAAFDSFFIGYLEPQPPGEAIALYVPGSERSYDLTGLKPGTEYNVTIQGVKGGFPSEPLVAHFTT |
| 5.6e+06 RLU | 636 | CD71-binding FN3 domain SEQ ID NO: 303 (designed binder) MSLPAPKNLVVSRVTEDSARLSWTAPDAAFDSFWIEYWEGWKSGEAIVLTVPGSERSYDLTGLKPGTEYRVHIWGVKGGIVSWPLSAIFTT |
| 5.29e+06 RLU | 1030 | CD71-binding FN3 domain SEQ ID NO: 297 (designed binder) MSLPAPKNLVVSRVTEDSARLSWTAPDAAFDSFEISYFENTWYGEAIVLTVPGSERSYDLTGLKPGTEYSVRIFGVKGGNFSFPLSAIFTT |
| 5.32e+06 RLU | 164 | CD71-binding FN3 domain SEQ ID NO: 236 (designed binder) MSLPAPKNLVVSRVTEDSARLSWTEPDAAFDSFEIGYFENLYLGEAIVLTVPGSERSYDLTGLKPGTEYWVQIGGVKGGNWSAPLSAIFTT |
| 5.36e+06 RLU | 72 | CD71-binding FN3 domain SEQ ID NO: 307 (designed binder) MSLPAPKNLVVSRVTEDSARLSWTAPDAAFNSFEIGYFENLYLGEAIVLTVPGSERSYDLTGLKPGTEYWVQIGGVKGGTFSAPLSAIFTT |
| 5.31e+06 RLU | 556 | CD71-binding FN3 domain SEQ ID NO: 312 (designed binder) MSLPAPKNLVVSRVTEDSARLSWTAPDAAFDSFEIGYFENLYLGEAIVLTIPGSERSYDLTGLKPGTEYWVQIGGVKGGNWSAPLSAIFTT |

| RLU [1] | Apical domain:HSA [2] | Binder |
| --- | --- | --- |
| 5.5e+06 RLU | 446 | CD71-binding FN3 domain SEQ ID NO: 304 (designed binder) MSLPAPKNLVVSRVTEDSARLSWTAPDAAFDSFEIGYFENLYLGEAIVLTVPGSERSYDLTGLKPGTEYVVFIGGVKGGVWSVPLSAIFTT |
| 5.35e+06 RLU | 614 | CD71-binding FN3 domain SEQ ID NO: 299 (designed binder) MSLPAPKNLVVSRVTEDSARLSWTAPDAAFDSFEIAYFENLYLGEAIVLTVPGSERSYDLTGLKPGTEYWVQIGGVKGGNWSAPLSAIFTT |
| 5.57e+06 RLU | 406 | CD71-binding FN3 domain SEQ ID NO: 300 (designed binder) MSLPAPKNLVVSRVTEDSARLSWTAPDAAFDSFEIGYFEATPNGEAIVLTVPGSERSYDLTGLKPGTEYKVFIGGVKGGRWSKPLSAIFTT |
| 5.17e+06 RLU | 835 | CD71-binding FN3 domain SEQ ID NO: 313 (designed binder) MSLPAPKNLVVSRVTEDSARLSWTAPDAAFDSFEIAYFENDWAGEAIVLTIPGSERSYDLTGLKPGTEYWVQIGGVKGGNWSAPLSAIFTT |
| 4.44e+06 RLU | 442 | CD71-binding FN3 domain SEQ ID NO: 316 (designed binder) MSLPAPKNLVISRVTEDSARLSWTAPDAAFDSFEIGYFENLYLGEAIVLTVPGSERSYDLTGLKPGTEYWVQIGGVKGGNWSAPLSAIFTT |
| 5.3e+06 RLU | 414 | CD71-binding FN3 domain SEQ ID NO: 298 (designed binder) MSLPAPKNLVVSRVTEDSARLSWTAPDAAFDSFEIGYFENLYLGEAIVLTVPGSERSYDLTGLKPGTEYWVQIGGVKGDNWSAPLSAIFTT |
| 5.62e+06 RLU | 452 | CD71-binding FN3 domain SEQ ID NO: 309 (designed binder) MSLPAPENLVVSRVTEDSARLSWTAPDAAFDSFEIGYFENLYLGEAIVLTVPGSERSYDLTGLKPGTEYWVQIGGVKGGNWSAPLSAIFTT |
| 4.22e+06 RLU | 95 | CD71-binding FN3 domain SEQ ID NO: 323 (designed binder) MSLPAPKNLVVSRVTEDSARLSWTAPDAAFDSFEIGYFENLYLGEAIVLTVPGSERSYDLTGLKPGTEYWVQIGGVKGGNWSGPLSAIFTT |
| 3.7e+06 RLU | 42 | CD71-binding FN3 domain SEQ ID NO: 328 (designed binder) MSLPAPKNLVVSRVTEDSARLSWTAPDAAFDSFEIGYFGNLYLGEAIVLTVPGSERSYDLTGLKPGTEYWVQIGGVKGGNWSAPLSAIFTT |
| 4.64e+06 RLU | 128 | CD71-binding FN3 domain SEQ ID NO: 329 (designed binder) MSLPAPKNLVVSRVTEDSARLSWTAPDAAFDSFDIGYFEATYYGEAIVLTVPGSERSYDLTGLKPGTEYRVWIGGVKGGYYSNPLSAIFTT |
| 4.31e+06 RLU | 92 | CD71-binding FN3 domain SEQ ID NO: 330 (designed binder) MSLPAPKNLVVSRVTEDSARLSWTAPDAAFDSFEIGYFENLYLGEAIVLTVPGSERSYDLTGLKPGTEYWVQIGGVKGGNWSAPLSAIVTT |
| 4.37e+06 RLU | 205 | CD71-binding FN3 domain SEQ ID NO: 325 (designed binder) MSLPAPKNLVVSRVTEDSARLSWTAPDAAFDSFEIGYFENLYLGEAIVLTVPGSERSYDLTGLKPGTEYWVQIGGVKGGNWSAPLSEIFTT |
| 4.53e+06 RLU | 216 | CD71-binding FN3 domain SEQ ID NO: 301 (designed binder) MSLPAPKNLVVSRVTEDSARLSWTTPDAAFDSFEIGYFENLYLGEAIVLTVPGSERSYDLTGLKPGTEYWVQIGGVKGGNWSAPLSAIFTT |
| 4.99e+06 RLU | 252 | CD71-binding FN3 domain SEQ ID NO: 322 (designed binder) MSLPAPKNLVVSRVTEDSARLSWTAPDAAFDSFEIGYFEITRYGEAIILFVPGSERSYDLTGLKPGTEYWVQIGGVKGGNWSAPLSAIFTT |
| 5.69e+06 RLU | 495 | CD71-binding FN3 domain SEQ ID NO: 305 (designed binder) MSLPAPKNLVVSRVTEDSARLSWTAPDAAFDSFEIAYFEQTYTGEAIVLTVPGSERSYDLTGLKPGTEYWVQIGGVKGGNWSAPLSAIFTT |
| 4.24e+06 RLU | 227 | CD71-binding FN3 domain SEQ ID NO: 327 (designed binder) MSLPAPKNLVVSRVTEDSARLSWTAPDAAFDSFEIGYWENAYKGEAIVLTVPGSERSYDLTGLKPGTEYWVQIGGVKGGNWSAPLSAIFTT |
| 4.4e+06 RLU | 73 | CD71-binding FN3 domain SEQ ID NO: 315 (designed binder) MSLPAPKNLVVSRVTEDSARLSWTAPDAAFDSFEIGYFENLYLGEAIVLTVPGSERSYDLTGLKPGTEYWVQIGGVKGGNWSAPLSAISTT |
| 4.94e+06 RLU | 380 | CD71-binding FN3 domain SEQ ID NO: 332 (designed binder) MSLPAPKNLVVSRVTEDSARLSWTAPDAAFDSFEIGYWEGPGGGEAIILVVPGSERSYDLTGLKPGTEYYVQIGGVKGGDWSTPLWATFTT |
